Tests used:
MDA-MB-231 cells = test: In vitro cytotoxicity (CellTiter-Glo, 5 days); type: cell-based, human; settings: MMAE-conjugated antibodies
LCLC-103H cells = test: In vitro cytotoxicity (CellTiter-Glo, 5 days); type: cell-based, human; settings: MMAE-conjugated antibodies
A431 cells = settings: MMAE-conjugated antibodies, 5 days
[1] = test system: LCLC-103H xenograft tumors; test: LCLC-103H xenograft model; type: in vivo, SCID mice
Method: 5 × 10^6 LCLC-103H (large cell lung carcinoma) tumor cells (obtained from Leibniz-Institut DSMZ-Deutsche Sammlung von Mikroorganismen und Zellkulturen GmbH (DSMZ)) in 200 µL PBS were injected subcutaneously in the right flank of female SCID mice. Starting 14-21 days after tumor cell inoculation, when the average tumor size was >100-200 mm^3 and distinct tumor growth was observed, a single injection with 1 mg/kg (20 µg/mouse) IgG1-AXL-vcMMAE antibodies (as described in Supplementary Example 1) or control (unconjugated IgG1-b12) was given intraperitoneally (100 µL/mouse). Tumor volume was determined at least two times per week. Tumor volumes (mm^3) were calculated from caliper (PLEXX) measurements as: 0.52 × (length) × (width)^2.
(§1) Tumor induction was performed by subcutaneous injection of 5 × 10^6 A431 or LCLC-103H tumor cells (both obtained from Leibniz-Institut - Deutsche Sammlung von Mikroorganismen und Zellkulturen GmbH (DSMZ)) in 200 µL PBS in the right flank of female SCID mice. Treatment was started 14-21 days after tumor cell inoculation, when the average tumor size was >100-200 mm^3 and distinct tumor growth was observed. Mice received a single injection or a total of 4 biweekly intraperitoneal injections with IgG1-AXL-vcMMAE ADCs or control antibody (unconjugated IgG1-b12), as indicated. Tumor volume was determined at least two times per week. Tumor volumes (mm^3) were calculated from caliper (PLEXX) measurements as: 0.52 × (length) × (width)^2.

PAXF1657 tumors = test: PAXF1657 pancreas cancer PDX model; type: in vivo, NMRI nu/nu mice
A431 tumors = test: A431 xenograft model (high Gas6); type: in vivo, SCID mice; settings: 3 mg/kg
Method: as §1

B1: IgG1-AXL-148-vcMMAE (conjugate)
VH: EVQLLESGGGLVQPGGSLRLSCAASGFTFSSYAMTWVRQAPGKGLEWVSAISISGGSTFYADSVKGRFTISRDNSKNTLYLQMNSLRAEDTAVYYCRGYSGYVYDAFDFWGQGTMVTVSS
VL: DIQMTQSPSSLSASVGDRVTITCRASQGISNWLAWYQQKPEKAPKSLIYAASSLQSGVPSRFSGSGSGTDFTLTISSLQPEDFATYYCQQYNSYPLTFGGGTKVEIK
With B1 the “Cytotoxicity EC50 (µg/mL) MDA-MB231 (n=2) Mean” value (MDA-MB-231 cells) was 0.012 µg/mL, the “Cytotoxicity in LCLC-103H cells EC50” value (LCLC-103H cells) was 0.012 µg/mL and the “Cytotoxicity EC50 (µg/mL) A431 (n=3) Mean” value (A431 cells) was 0.070 µg/mL. For the same molecule, the “anti-tumor activity in the LCLC-103H xenograft model” value ([1]; 3 mg/kg (Example 13, FIG. 14A)) was “tumor regression”, the “anti-tumor activity in established SC LCLC-103H tumors” value ([1]; single injection 1 mg/kg intraperitoneally (Example 9)) was “tumor regression” and the “growth of PAXF1657 tumors compared to the control group” value (PAXF1657 tumors; 2 mg/kg i.v., day 0) was “significantly reduced the growth”. For the same molecule, the “growth of PAXF1657 tumors” value (PAXF1657 tumors; 4 mg/kg i.v., day 0) was “induced tumor regression”, the “anti-tumor activity in the PAXF1657 model (FIG. 10B, 10C)” value (PAXF1657 tumors; mouse, in vivo) was “dose-dependent antitumor activity” and the “anti-tumor activity in the A431 xenograft model” value (A431 tumors) was “growth inhibition”.

Source: patent publication US20230321261A1, “AXL-SPECIFIC ANTIBODY-DRUG CONJUGATES FOR CANCER TREATMENT” (GENMAB A/S, priority 2016, published 2023)
